# Measured values: the supplement of paper PMC10201428
# ± gives the standard deviation of the averaged measurements.
# B1: library; a variant is named by its letters at N, in order (parent)
# chain: ACATTTGTTGATACAACCATAAAATGATAATTACACCCATAAATTGATAATTATCACACCCANNNNNNNNNNNNNNCTCTGATCATAGTCAGACCAACATTGCTACGACCCGTATTCGCACCGACAC
# Assays:
# [1] = variants of: B1; assay: relative integration efficiency (T-RL orientation) vs wild-type transposon end (log2 (normalized fold change)); transposon end mutated: right end (5 bp flank + 75 bp right end); higher = more efficient transposition; conditions: with VchCAST RNA-guided transposition machinery (E. coli BL21(DE3) host, lacZ target)
# Summary of the method: (§1)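 Barcode abundances in input plasmids and in genomic integration junctions were obtained by PCR amplification and Illumina sequencing. These came from E. coli BL21(DE3) co-transformed with a T7-driven effector plasmid and a pUC57 donor carrying 1549 left-end or 1849 right-end transposon variants, then plated with 0.1 mM IPTG at 37°C for 18 h. Relative integration efficiency is the output/input fold change, normalised to reference barcodes and log-transformed.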
# [2] = variants of: B1; assay: relative integration efficiency (T-LR orientation) vs wild-type transposon end (log2 (normalized fold change)); transposon end mutated: right end (5 bp flank + 75 bp right end); higher = more efficient transposition; conditions: with VchCAST RNA-guided transposition machinery (E. coli BL21(DE3) host, lacZ target)
# Summary of the method: as §1
Variant,relative integration efficiency (log2) [1],relative integration efficiency (log2) [2]
ACATTTGTTGATACAACCATAAAATGATAATAACACCCATAAATTGATAATTATCACACCCATAAATTGATATTGCCTCTGATCATAGTCAGACCAACATTGCTACGACCCGTATTCGCACCGACAC,0.933 ± 0.11,0.96 ± 0.14
ACATTTGTTGATACAACCATAAAATGATAATGACACCCATAAATTGATAATTATCACACCCATAAATTGATATTGCCTCTGATCATAGTCAGACCAACATTGCTACGACCCGTATTCGCACCGACAC,-1.26 ± 0.063,0.729 ± 0.26
ACATTTGTTGATACAACCATAAAATGATAATCACACCCATAAATTGATAATTATCACACCCATAAATTGATATTGCCTCTGATCATAGTCAGACCAACATTGCTACGACCCGTATTCGCACCGACAC,-0.438 ± 0.11,-0.169 ± 0.21
ACATTTGTTGATACAACCATAAAATGATAACTACACCCATAAATTGATAATTATCACACCCATAAATTGATATTGCCTCTGATCATAGTCAGACCAACATTGCTACGACCCGTATTCGCACCGACAC,-0.0667 ± 0.0077,0.344 ± 0.35
ACATTTGTTGATACAACCATAAAATGATAAATACACCCATAAATTGATAATTATCACACCCATAAATTGATATTGCCTCTGATCATAGTCAGACCAACATTGCTACGACCCGTATTCGCACCGACAC,-0.436 ± 0.1,0.0674 ± 0.1
ACATTTGTTGATACAACCATAAAATGATAAGTACACCCATAAATTGATAATTATCACACCCATAAATTGATATTGCCTCTGATCATAGTCAGACCAACATTGCTACGACCCGTATTCGCACCGACAC,-0.564 ± 0.13,0.2 ± 0.23
ACATTTGTTGATACAACCATAAAATGATAATTACACCCAAAAATTGATAATTATCACACCCATAAATTGATATTGCCTCTGATCATAGTCAGACCAACATTGCTACGACCCGTATTCGCACCGACAC,-0.0544 ± 0.14,-0.355 ± 0.17
ACATTTGTTGATACAACCATAAAATGATAATTACACCCACAAATTGATAATTATCACACCCATAAATTGATATTGCCTCTGATCATAGTCAGACCAACATTGCTACGACCCGTATTCGCACCGACAC,-0.609 ± 0.017,-0.859 ± 0.091
ACATTTGTTGATACAACCATAAAATGATAATTACACCCAGAAATTGATAATTATCACACCCATAAATTGATATTGCCTCTGATCATAGTCAGACCAACATTGCTACGACCCGTATTCGCACCGACAC,-0.896 ± 0.09,-1.24 ± 0.71
ACATTTGTTGATACAACCAAAAAATGATAATTACACCCATAAATTGATAATTATCACACCCATAAATTGATATTGCCTCTGATCATAGTCAGACCAACATTGCTACGACCCGTATTCGCACCGACAC,-0.299 ± 0.1,-0.359 ± 0.083
ACATTTGTTGATACAACCACAAAATGATAATTACACCCATAAATTGATAATTATCACACCCATAAATTGATATTGCCTCTGATCATAGTCAGACCAACATTGCTACGACCCGTATTCGCACCGACAC,-0.448 ± 0.19,-0.577 ± 0.33
ACATTTGTTGATACAACCAGAAAATGATAATTACACCCATAAATTGATAATTATCACACCCATAAATTGATATTGCCTCTGATCATAGTCAGACCAACATTGCTACGACCCGTATTCGCACCGACAC,-1.34 ± 0.03,-1.12 ± 0.28
ACATTTGTTGATACAACCATAAAATGAAAATTACACCCATAAATTGATAATTATCACACCCATAAATTGATATTGCCTCTGATCATAGTCAGACCAACATTGCTACGACCCGTATTCGCACCGACAC,-0.215 ± 0.21,0.152 ± 0.12
ACATTTGTTGATACAACCATAAAATGAGAATTACACCCATAAATTGATAATTATCACACCCATAAATTGATATTGCCTCTGATCATAGTCAGACCAACATTGCTACGACCCGTATTCGCACCGACAC,-0.476 ± 0.036,0.189 ± 0.11
ACATTTGTTGATACAACCATAAAATGACAATTACACCCATAAATTGATAATTATCACACCCATAAATTGATATTGCCTCTGATCATAGTCAGACCAACATTGCTACGACCCGTATTCGCACCGACAC,-0.278 ± 0.096,-0.203 ± 0.2
ACATTTGTTGAAACAACCATAAAATGATAATTACACCCATAAATTGATAATTATCACACCCATAAATTGATATTGCCTCTGATCATAGTCAGACCAACATTGCTACGACCCGTATTCGCACCGACAC,-0.107 ± 0.031,-0.916 ± 0.17
ACATTTGTTGACACAACCATAAAATGATAATTACACCCATAAATTGATAATTATCACACCCATAAATTGATATTGCCTCTGATCATAGTCAGACCAACATTGCTACGACCCGTATTCGCACCGACAC,-0.235 ± 0.019,-0.906 ± 0.64
ACATTTGTTGAGACAACCATAAAATGATAATTACACCCATAAATTGATAATTATCACACCCATAAATTGATATTGCCTCTGATCATAGTCAGACCAACATTGCTACGACCCGTATTCGCACCGACAC,-0.147 ± 0.043,-1.06 ± 0.57
ACATTTGTTGATACAACCATAAAATGATAATTACACCCATAAACTGATAATTATCACACCCATAAATTGATATTGCCTCTGATCATAGTCAGACCAACATTGCTACGACCCGTATTCGCACCGACAC,-0.0775 ± 0.082,-0.274 ± 0.09
ACATTTGTTGATACAACCATAAAATGATAATTACACCCATAAAATGATAATTATCACACCCATAAATTGATATTGCCTCTGATCATAGTCAGACCAACATTGCTACGACCCGTATTCGCACCGACAC,0.0685 ± 0.021,-0.0417 ± 0.00085
ACATTTGTTGATACAACCATAAAAAGATAATTACACCCATAAATTGATAATTATCACACCCATAAATTGATATTGCCTCTGATCATAGTCAGACCAACATTGCTACGACCCGTATTCGCACCGACAC,-0.524 ± 0.069,-0.8 ± 0.34
ACATTTGTTGATACAACCATAAAACGATAATTACACCCATAAATTGATAATTATCACACCCATAAATTGATATTGCCTCTGATCATAGTCAGACCAACATTGCTACGACCCGTATTCGCACCGACAC,-0.146 ± 0.0084,-0.488 ± 0.0056
ACATTTGTTGATACAACCATAAAAGGATAATTACACCCATAAATTGATAATTATCACACCCATAAATTGATATTGCCTCTGATCATAGTCAGACCAACATTGCTACGACCCGTATTCGCACCGACAC,-0.25 ± 0.041,-0.0581 ± 0.34
